Experimental data published in patent US20190153106A1 (TRUSTEES OF BOSTON UNIVERSITY, published 2019).
Where “and” joins values, the source holds several entries; their conditions need not be identical. Equal values may be shown once. Read-outs that look alike come from different tables or passages of the source.

T1: antigenic peptide (AP) EMKSRWNWGS (human/monkey/rat DEspR epitope)
T1 construct: also called 6G8G7 antigenic peptide; partial peptide
T1 peptide: EMKSRWNWGS

T2: rat DEspR (rat)
T2 chain: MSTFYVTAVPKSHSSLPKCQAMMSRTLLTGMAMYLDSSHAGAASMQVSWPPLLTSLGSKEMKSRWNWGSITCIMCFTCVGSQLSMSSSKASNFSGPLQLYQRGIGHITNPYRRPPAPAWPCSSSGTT

B1: 6g8^IgG4 humab1 (6g8g7-derived IgG4 humanized monoclonal antibody 1) (antibody)
heavy: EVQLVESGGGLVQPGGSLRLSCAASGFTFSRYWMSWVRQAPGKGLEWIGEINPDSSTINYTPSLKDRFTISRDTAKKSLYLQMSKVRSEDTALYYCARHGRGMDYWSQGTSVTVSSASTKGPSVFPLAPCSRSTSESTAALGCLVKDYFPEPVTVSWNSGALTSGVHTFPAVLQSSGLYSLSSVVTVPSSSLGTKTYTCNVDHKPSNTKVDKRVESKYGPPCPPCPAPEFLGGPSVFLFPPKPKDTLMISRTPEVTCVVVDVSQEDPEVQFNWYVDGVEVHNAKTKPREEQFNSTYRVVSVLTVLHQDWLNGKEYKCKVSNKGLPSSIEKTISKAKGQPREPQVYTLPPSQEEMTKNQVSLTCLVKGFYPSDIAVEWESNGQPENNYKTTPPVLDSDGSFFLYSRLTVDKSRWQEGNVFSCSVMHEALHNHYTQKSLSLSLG
light: DIVLTQSPDILSVSLGERATVNCKASQNVDSNVAWYQQKPGHPPKLLIYSASYRYSRVPDRISGSGSGTDFTLTISNLQAEDVAVYYCQQYHSYPLLAFGAGTKLELKRTVAAPSVFIFPPSDEQLKSGTASVVCLLNNFYPREAKVQWKVDNALQSGNSQESVTEQDSKDSTYSLSSTLTLSKADYEKHKVYACEVTHQGLSSPVTKSFNRGEC
notes: Hinge-stabilized (S228P) human IgG4 / human kappa, transiently expressed in HEK293; AF568-labelled in the FACS assays; also called 6G8IgG4 humanized monoclonal antibody 1 (mAb 1); lead candidate humab
B2: 6g8^IgG1 humab1 (IgG1 6G8G7 humanized monoclonal antibody) (antibody)
heavy: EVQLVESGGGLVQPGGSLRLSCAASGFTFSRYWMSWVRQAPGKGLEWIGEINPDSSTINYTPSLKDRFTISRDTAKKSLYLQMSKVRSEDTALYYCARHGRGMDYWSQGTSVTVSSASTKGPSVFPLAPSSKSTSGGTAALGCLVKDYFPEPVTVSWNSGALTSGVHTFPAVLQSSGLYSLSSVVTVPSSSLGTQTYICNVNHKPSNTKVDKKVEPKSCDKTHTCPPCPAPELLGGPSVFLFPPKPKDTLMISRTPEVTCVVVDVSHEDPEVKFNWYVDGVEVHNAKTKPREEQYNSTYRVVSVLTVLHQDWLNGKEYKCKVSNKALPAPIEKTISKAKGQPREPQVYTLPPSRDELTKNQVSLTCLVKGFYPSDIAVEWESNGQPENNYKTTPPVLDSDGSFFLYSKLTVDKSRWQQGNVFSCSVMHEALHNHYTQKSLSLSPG
light: DIVLTQSPDILSVSLGERATVNCKASQNVDSNVAWYQQKPGHPPKLLIYSASYRYSRVPDRISGSGSGTDFTLTISNLQAEDVAVYYCQQYHSYPLLAFGAGTKLELKRTVAAPSVFIFPPSDEQLKSGTASVVCLLNNFYPREAKVQWKVDNALQSGNSQESVTEQDSKDSTYSLSSTLTLSKADYEKHKVYACEVTHQGLSSPVTKSFNRGEC
notes: Human IgG1 / human kappa
B3: 6G8G7 murine anti-DEspR monoclonal antibody (antibody, V domains shown)
VH: EVQLQESGGGLVQPGGSLKLSCAASGFDFSRYWMSWVRQAPGKGLEWIGEINPDSSTINYTPSLKDKFIISRDTAKKTLYLQMSKVRSEDTALYYCARHGRGMDYWSQGTSVTVSS
VL: DIVLTQTNQIMSASVGDRVSVTCKASQNVDSNVAWYQQKPGHSPKALIYSASYRYSRVPDRITGSGSGTDFTLTITNVQSKDLADYFCQQYHSYPLLAFGAGTKLELKR
notes: Mouse hybridoma antibody, detected with anti-mouse IgG2b; also called 6g8 mumab; 6g8-mumab
B4: human DEspR (dual endothelin-1/VEGF signal peptide receptor) (receptor)
chain: MTMFKGSNEMKSRWNWGSITCIICFTCVGSQLSMSSSKASNFSGPLQLYQRELEIFIVLTDVPNYRLIKENSHLHTTIVDQGRTV
modifications: glycosylated (~17 kDa band, PNGase-sensitive)
notes: On intact Panc1 cells / Panc1 CSCs in the FACS assays and on HUVECs in the angiogenesis assays; In pulldowns and Western blots it came from membrane proteins of U87 CSCs and hDEspR-Cos1 permanent transfectants; also called hDEspR; DEAR
B5: 7C5B2 mouse anti-human DEspR monoclonal antibody (antibody, V domains shown)
VH: QVQLKESGPGLVAPSQSLSITCTVSGFSLKSYAVSWVRQPPGKGLEWLGVIWGDGSTDYHSALISRLSISKDNSKSQFFLRLNSLQTDDTATYYCARGTGTGFAYWGQGTLVTVSA
VL: DVVMTQTPLSLPVSLGDQASISCRSSQSLVHSNGNTYLHWYLQKPGQSPKLLIYKVSNRFSGVPDRFSGSGSGTDFTLKISRVEAEDLGIYFCSQCTHIPWTFGGGTNLEIK
notes: Mouse hybridoma antibody raised against the 9-aa N-terminal peptide of human DEspR; IgG2b was used as its isotype control; AF568-labelled in the FACS and internalization assays; also called 7C5-murine monoclonal antibody; HV2KV2

Tests used:
[1] = target: B4; assay: cell-based or functional assay
[2] = target: B4; assay: FACS, AF568-labelled mAb on intact DEspR+ human cells (Panc1), 4°C
Procedure: Binding was determined by FACS analysis.
(§1) Neutrophils (50000/well) were incubated in the absence or presence of mAbs at 37° C. × 4 hrs and live cells counted by using Trypan blue. HUVEC-dependent angiogenesis (20,000 cells/well) was performed as described in the presence or absence of mAbs. Number of polygons and number of branch points were determined after 14 hrs of incubation at 37° C. ND, not done, indeterminate, value greater than upper limit of max dose used in these experiments.

[3] = target: B4; assay: cell-based or functional assay; remark: listed apart in the source
[4] = target: T1, antigenic peptide (AP) EMKSRWNWGS; assay: ELISA on antigenic peptide EMKSRWNWGS
Procedure: Next, the EC50 of binding to the antigenic peptide was determined by ELISA, as shown in FIGS. 35A-35B, comparing two IgG4 6g8g7 humanized antibody candidates (including humab1 comprising SEQ ID NOs: 63 and 65 and humab2 comprising SEQ ID NO: 65 with substitutions in SEQ ID NO: 26 at Kabat residues 83V and 85Y to give 83D and 85Y), and the IgG1 6G8G7humanized monoclonal antibody (comprising SEQ ID NOs: 61 and 65), and 6G8G7 murine monoclonal antibody (“6g8 mumab”).
as §1

rat DEspR = target: T2, rat DEspR; assay: cell-based or functional assay
[5] = target: B4; assay: FACS displacement of AF568-7C5B2 (10 µg/ml) from Panc1 CSCs; peptide at 100x molar excess
Procedure: 50,000 cells were reacted with 10 µg/ml AF568-labelled 7C5B2 monoclonal antibody (mAb) at 4° C. for 20 min in the absence or presence of the different peptides at 100× molar excess. Samples were immediately subjected to FACS analysis for quantification of DEspR+ cells. Samples were run in duplicates. AngII, angiotensinII; ET1, endothelin-1 (DEspR ligand); sp17, VEGFsp17 (DEspR ligand); sp26, VEGFsp26 (DEspR ligand). Data presented as Mean±SD.

[6] = target: B4; assay: FACS saturation binding of AF568-labelled mAb to Panc1 CSCs, 4 °C, 20 min
Procedure: (§2) Saturation binding curves of monoclonal antibody (mAb) binding to DEspR on Panc1 CSCs. […] Specific binding was determined by FACS analysis using 100,000 cells in 0.25 ml containing increasing concentrations of mAbs. Incubations were done at 4° C. for 20 min and immediately subjected to FACS analysis on a BDTM LSRII Flow cytometer. Each data point was performed in duplicate.

[7] = target: B4; assay: saturation binding by FACS, AF568-labelled mAb on DEspR+ Panc1 cells
Procedure: as §2
Fully human VH5/VK1 has a slightly better Kd than VH3/VK2 fully human composite antibodies. […] (FIG. 16).

[8] = target: T1, antigenic peptide (AP) EMKSRWNWGS; assay: ELISA on antigenic peptide EMKSRWNWGS
galectin-1 = target: T3, galectin-1 (human, UniProt P09382 2-135); assay: Western blot of the DEspR complex
T3 construct: also called gal1; recombinant galectin-1 protein
T3 sequence (P09382 2-135 limits assumed): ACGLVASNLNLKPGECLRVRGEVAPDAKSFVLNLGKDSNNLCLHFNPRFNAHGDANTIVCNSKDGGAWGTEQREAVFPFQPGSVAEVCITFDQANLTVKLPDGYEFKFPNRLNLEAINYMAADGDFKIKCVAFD

Binder	Bmax (% + cells) [2] [% + cells]	EC50 [2]	Human Angiogenesis assay (HUVECs): branch points, IC50 [3] [µg/mL]	Human Angiogenesis assay (HUVECs): polygons, IC50 [3] [µg/mL]	Bmax (A450) [4] [A450]	EC50 [4] [µg/mL]	Rat Neutrophil survival, IC50 (rat DEspR) [µg/mL]	further results
MNFLLSWVHWSLALLLYLHHAKWSQA (ligand) [VEGFsp26 (VEGF signal peptide 26)]	–	–	–	–	–	–	–	inhibition of HUVEC angiogenesis, IC50 based on total tube length [1]: 1.9 nM
B1	31.5	~4.3 nM and 0.64 µg/mL	4.3	2.6	2.62	11.7	1.16	–
B2	21.6	1.3 µg/mL and 42.9 nM	10.4	9.1	3.09	13.4	6.98	–
CSCSSLMDKECVYFCHLDIIW (ligand, UniProt P05305 53-73, looked up, also called ET1; ET-1) [endothelin-1]	–	–	–	–	–	–	–	binding result [5]: binds
B3	35.6	5.39 µg/mL and 178 nM	> 30	> 30	6.36	2.96	> 30	Kd [6]: 5.2 µg/mL; Kd [7]: ~5.2 µg/mL; EC50 [8]: 4.96 µg/mL
B4	–	–	–	–	–	–	–	binding result (galectin-1): binds
MNFLLSWVHWSLALLLY (ligand) [VEGFsp17 (VEGF signal peptide 17)]	–	–	–	–	–	–	–	stimulation of HUVEC angiogenesis, EC50 based on total tube length [1]: 1.98 nM
B5	–	–	–	–	–	–	–	Kd [6]: 5.2 µg/mL; Kd [7]: ~5.2 µg/mL
